# Values quoted from earlier work in PMC9796269 (British Journal of Clinical Pharmacology, 2022).
substance,measurement,value
"CNP‐22: endogenous C‐type natriuretic peptide form, susceptible to Neprilysin degradation",calculated half‐life (clearance in human plasma),2.6 min
